Results: the Immune Epitope Database (IEDB)
Blank lines part the entries; values can stand above or below the sequence they belong to.

How the values were obtained:
HLA-A*02:01 [1] = assay: IEDB peptide-MHC binding, purified MHC/competitive/radioactivity; filed as Kd, often an IC50 or EC50 that approximates it; ≥ and ≤ were set here for values at or beyond the usual limits of such assays
HLA-A*02:03 [2] = assay: as above
HLA-A*02:06 = assay: as above
HLA-A*02:17 = assay: as above
HLA-B*08:02 = assay: IEDB peptide-MHC binding, purified MHC/direct/fluorescence; filed as Kd, often an IC50 or EC50 that approximates it; ≥ and ≤ were set here for values at or beyond the usual limits of such assays
HLA-A*26:01 [3] = assay: IEDB peptide-MHC binding, purified MHC/competitive/radioactivity; filed as Kd, often an IC50 or EC50 that approximates it; ≥ and ≤ were set here for values at or beyond the usual limits of such assays; settings: source organism: Dengue virus 3 Martinique/1243/1999
HLA-A*01:01 [4] = assay: IEDB peptide-MHC binding, purified MHC/direct/fluorescence; filed as Kd, often an IC50 or EC50 that approximates it; ≥ and ≤ were set here for values at or beyond the usual limits of such assays; settings: source organism: Neembucu hantavirus
HLA-A*02:03 [5] = assay: as above; settings: source organism: Lechiguanas virus
HLA-A*02:12 = assay: as above; settings: source organism: Lechiguanas virus
HLA-A*02:19 = assay: as above; settings: source organism: Lechiguanas virus
HLA-A*03:01 [6] = assay: as above; settings: source organism: Lechiguanas virus
HLA-A*23:01 = assay: as above; settings: source organism: Lechiguanas virus
HLA-A*24:03 = assay: as above; settings: source organism: Lechiguanas virus
HLA-A*68:02 = assay: as above; settings: source organism: Lechiguanas virus
HLA-A*02:01 [7] = assay: IEDB peptide-MHC binding, purified MHC/competitive/fluorescence; filed as Kd, often an IC50 or EC50 that approximates it; ≥ and ≤ were set here for values at or beyond the usual limits of such assays
HLA-A*26:01 [8] = assay: as above
HLA-B*15:17 = assay: as above; settings: source organism: Neembucu hantavirus
HLA-B*18:01 = assay: as above; settings: source organism: Neembucu hantavirus
HLA-B*27:03 = assay: as above; settings: source organism: Neembucu hantavirus
HLA-B*39:01 = assay: as above; settings: source organism: Neembucu hantavirus
HLA-B*46:01 = assay: as above; settings: source organism: Neembucu hantavirus
HLA-B*51:01 = assay: as above; settings: source organism: Neembucu hantavirus
HLA-B*57:01 = assay: as above; settings: source organism: Neembucu hantavirus
HLA-A*03:01 [9] = assay: IEDB peptide-MHC binding, purified MHC/competitive/fluorescence; ≥ and ≤ were set here for values at or beyond the usual limits of such assays; settings: source organism: Zaire ebolavirus
HLA-A*11:01 [10] = assay: as above; settings: source organism: Zaire ebolavirus
HLA-B*07:02 = assay: as above
HLA-A*01:01 [11] = assay: IEDB peptide-MHC binding, purified MHC/competitive/fluorescence; filed as Kd, often an IC50 or EC50 that approximates it; ≥ and ≤ were set here for values at or beyond the usual limits of such assays; settings: source organism: Yersinia pestis Nepal516
HLA-A*03:01 [12] = assay: as above; settings: source organism: Yersinia pestis Nepal516
HLA-B*15:01 [13] = assay: as above; settings: source organism: Yersinia pestis Nepal516
HLA-B*58:01 = assay: as above; settings: source organism: Yersinia pestis Nepal516
HLA-A*11:01 [14] = assay: as above
HLA-B*08:01 = assay: IEDB peptide-MHC binding, purified MHC/competitive/radioactivity; filed as Kd, often an IC50 or EC50 that approximates it; ≥ and ≤ were set here for values at or beyond the usual limits of such assays
HLA-A*24:02 = assay: IEDB peptide-MHC binding, purified MHC/competitive/fluorescence; ≥ and ≤ were set here for values at or beyond the usual limits of such assays
HLA-B*15:01 [15] = assay: as above; settings: source organism: Vaccinia virus Copenhagen
HLA-C*06:02 = assay: IEDB peptide-MHC binding, purified MHC/direct/fluorescence; filed as Kd, often an IC50 or EC50 that approximates it; ≥ and ≤ were set here for values at or beyond the usual limits of such assays; settings: source organism: Burkholderia mallei ATCC 23344
HLA-A*02:01 [16] = assay: IEDB peptide-MHC binding, purified MHC/competitive/fluorescence; ≥ and ≤ were set here for values at or beyond the usual limits of such assays; settings: source organism: Zaire ebolavirus
HLA-A*32:01 = assay: IEDB peptide-MHC binding, purified MHC/competitive/radioactivity; filed as Kd, often an IC50 or EC50 that approximates it; ≥ and ≤ were set here for values at or beyond the usual limits of such assays; settings: source organism: Dengue virus 3 Singapore/8120/1995
HLA-B*15:01 [17] = assay: as above; settings: source organism: Dengue virus 3 Martinique/1243/1999
[18] = source organism: Dengue virus 2 Jamaica/1409/1983
[19] = source organism: Neembucu hantavirus
[20] = source organism: Zaire ebolavirus
[21] = source organism: Dengue virus 1 Singapore/S275/1990
[22] = source organism: Dengue virus 3 China/80-2/1980
[23] = source organism: Dengue virus 2 Thailand/NGS-C/1944
[24] = source organism: Dengue virus 2 16681-PDK53
[25] = source organism: Vaccinia virus Copenhagen
[26] = source organism: Dengue virus 3 Martinique/1243/1999
[27] = source organism: Burkholderia mallei ATCC 23344
[28] = source organism: Dengue virus 4 Philippines/H241/1956
[29] = source organism: Giardia lamblia ATCC 50803

Sequence: AIYGAAFSGV
Kd (HLA-A*02:01 [1]; [18]): 1.05 nM | Kd (HLA-A*02:03 [2]; [18]): 8.6 nM | Kd (HLA-A*02:06; [18]): 4.57 nM | Kd (HLA-A*02:17; [18]): 627 nM

Sequence: DLKRKFYTL
Kd (HLA-B*08:02; source organism: Campylobacter jejuni subsp. jejuni 81116): 154 nM

Sequence: ELKGMSYAM
Kd (HLA-B*08:02; source organism: dengue virus type 3): ≥ 20000 nM | Kd (HLA-A*26:01 [3]): 1740 nM

Sequence: ETESATLFT
Kd (HLA-A*01:01 [4]): 592 nM | Kd (HLA-A*02:03 [5]): ≥ 20000 nM | Kd (HLA-A*02:12): ≥ 20000 nM | Kd (HLA-A*02:19): ≥ 20000 nM | Kd (HLA-A*03:01 [6]): ≥ 20000 nM | Kd (HLA-A*23:01): ≥ 20000 nM | Kd (HLA-A*24:03): ≥ 20000 nM | Kd (HLA-A*68:02): ≥ 20000 nM | Kd (HLA-A*02:01 [7]; [19]): ≥ 20000 nM | Kd (HLA-A*26:01 [8]; [19]): ≥ 20000 nM | Kd (HLA-B*15:17): ≥ 20000 nM | Kd (HLA-B*18:01): ≥ 20000 nM | Kd (HLA-B*27:03): ≥ 20000 nM | Kd (HLA-B*39:01): ≥ 20000 nM | Kd (HLA-B*46:01): ≥ 20000 nM | Kd (HLA-B*51:01): ≥ 20000 nM | Kd (HLA-B*57:01): ≥ 20000 nM

Sequence: GIRGFPRCR
IC50 (HLA-A*03:01 [9]): 1060 nM | IC50 (HLA-A*11:01 [10]): 42100 nM | IC50 (HLA-B*07:02; [20]): ≥ 451000 nM

Sequence: GPAAEGIYI
IC50 (HLA-B*07:02; [20]): 60400 nM

Sequence: KTAVVVTRY
Kd (HLA-A*01:01 [11]): 455 nM | Kd (HLA-A*03:01 [12]): 676 nM | Kd (HLA-B*15:01 [13]): 674 nM | Kd (HLA-B*58:01): 36.2 nM

Sequence: KTYFEKVERLK
Kd (HLA-A*11:01 [14]; source organism: Influenza A virus (A/swine/Scotland/410440/94(H1N2))): 28.7 nM

Sequence: LLFKTSVGV
Kd (HLA-A*02:01 [1]; [21]): 3.22 nM | Kd (HLA-A*02:03 [2]; [21]): 9.08 nM | Kd (HLA-A*02:17; [21]): 90.3 nM

Sequence: LLLGLMILLT
Kd (HLA-A*02:01 [1]; [22]): 1660 nM | Kd (HLA-A*02:17; [22]): 697 nM

Sequence: LPAAPDGIR
IC50 (HLA-B*07:02; [20]): 54700 nM

Sequence: LQMENKAWLV
Kd (HLA-A*02:01 [1]; [23]): 10.1 nM | Kd (HLA-A*02:06; [24]): 1.17 nM | Kd (HLA-A*02:17; [23]): 142 nM | Kd (HLA-B*08:01; [24]): 6750 nM

Sequence: RIPNSLHSL
IC50 (HLA-A*24:02; [25]): 656 nM | IC50 (HLA-B*07:02; [25]): 37200 nM | IC50 (HLA-B*15:01 [15]): 22700 nM

Sequence: RLITANPVV
Kd (HLA-A*02:03 [2]; [26]): 36.3 nM | Kd (HLA-A*02:06; [26]): 65.1 nM | Kd (HLA-A*02:17; [22]): 520 nM

Sequence: RLRRRRHPL
Kd (HLA-B*08:02; [27]): 1190 nM | Kd (HLA-C*06:02): ≥ 20000 nM | Kd (HLA-A*02:01 [7]; [27]): ≥ 20000 nM

Sequence: RMVLAFITFL
Kd (HLA-A*02:01 [1]; [28]): 3.25 nM | Kd (HLA-A*02:17; [28]): 1.76 nM

Sequence: RTLDTLALY
Kd (HLA-A*01:01 [11]): 1210 nM | Kd (HLA-A*03:01 [12]): 132 nM | Kd (HLA-A*26:01 [8]; source organism: Yersinia pestis Nepal516): 4500 nM | Kd (HLA-B*58:01): 8.4 nM

Kd (HLA-A*11:01 [14]; source organism: Homo sapiens): 554 nM
Sequence: SSSPQPKKK

Sequence: TELRTFSIL
IC50 (HLA-A*02:01 [16]): ≥ 395000 nM | IC50 (HLA-A*24:02; [20]): 8430 nM | IC50 (HLA-B*07:02; [20]): 50300 nM

Sequence: TLGMCCIITA
Kd (HLA-A*02:01 [1]; [18]): 67.4 nM | Kd (HLA-A*02:17; [18]): 16900 nM

Sequence: VLFTFVLLL
Kd (HLA-A*02:17; [22]): 568 nM | Kd (HLA-A*32:01): 494 nM

Sequence: YARLRKEVL
Kd (HLA-B*08:02; [29]): 350 nM | Kd (HLA-A*02:01 [7]; [29]): ≥ 20000 nM

Sequence: YQLWTALISL
Kd (HLA-A*02:01 [1]; [26]): 18.8 nM | Kd (HLA-A*02:06; [26]): 1.75 nM | Kd (HLA-A*02:17; [26]): 104 nM | Kd (HLA-B*08:01; [26]): 1320 nM | Kd (HLA-B*15:01 [17]): 5.62 nM
